Reference: paper PMC7663122, “Protein-Assisted Room-Temperature Assembly of Rigid, Immobile Holliday Junctions and Hierarchical DNA Nanostructures”

Tests used:
[1] = target: T1, Redβ (single-strand annealing protein) (UniProt P03698 1-261); experiment: SEC, gel and AFM; excess Redβ (ssDNA/Redβ 1:25 stated), 25 °C, 1 mM MgCl2; B1 buffer: 50 mM Tris-HCl pH 8.0, 150 mM NaCl, 1 mM MgCl2, 25 °C (sticky-end assemblies); 44mer coating and annealing at 37 °C; SEC in 100 mM Tris-HCl pH 8.0, 150 mM NaCl, 1 mM MgCl2; conditions: protein: recombinant, tags: Strep-tag II, four-way junction
T1 sequence: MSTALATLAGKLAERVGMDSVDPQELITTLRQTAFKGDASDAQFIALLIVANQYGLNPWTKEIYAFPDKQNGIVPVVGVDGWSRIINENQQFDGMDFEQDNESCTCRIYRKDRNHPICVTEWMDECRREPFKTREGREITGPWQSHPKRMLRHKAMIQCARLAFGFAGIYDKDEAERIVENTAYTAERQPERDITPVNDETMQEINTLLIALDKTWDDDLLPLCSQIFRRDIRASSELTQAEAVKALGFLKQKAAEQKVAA

[2] = target: T1, Redβ (single-strand annealing protein); experiment: EMSA (agarose), SEC and AFM; strands coated first, then mixed; ssDNA/Redβ 1:1 (incomplete) and 1:2 (saturated); B1 buffer: 50 mM Tris-HCl pH 8.0, 150 mM NaCl, 1 mM MgCl2, 25 °C (sticky-end assemblies); 44mer coating and annealing at 37 °C; SEC in 100 mM Tris-HCl pH 8.0, 150 mM NaCl, 1 mM MgCl2; conditions: protein: recombinant; tags: Strep-tag II; blunt-ended immobile four-way junction, 44 bp arms
[3] = target: T1, Redβ (single-strand annealing protein); experiment: EMSA (agarose) and AFM; strands coated first at 37 °C, then mixed; ssDNA/Redβ 1:1 to 1:4; weak interaction, residual free ssDNA at 1:1; B1 buffer: 50 mM Tris-HCl pH 8.0, 150 mM NaCl, 1 mM MgCl2, 25 °C (sticky-end assemblies); 44mer coating and annealing at 37 °C; SEC in 100 mM Tris-HCl pH 8.0, 150 mM NaCl, 1 mM MgCl2; conditions: protein: recombinant; tags: Strep-tag II; blunt-ended immobile four-way junction, 22 bp arms
[4] = target: T1, Redβ (single-strand annealing protein); experiment: EMSA (agarose) and AFM; strands coated first, then mixed; ssDNA/Redβ 1:1 and 1:2; completely coated at 1:1, slightly increased affinity vs 44mer; B1 buffer: 50 mM Tris-HCl pH 8.0, 150 mM NaCl, 1 mM MgCl2, 25 °C (sticky-end assemblies); 44mer coating and annealing at 37 °C; SEC in 100 mM Tris-HCl pH 8.0, 150 mM NaCl, 1 mM MgCl2; conditions: protein: recombinant; tags: Strep-tag II; blunt-ended immobile four-way junction, 33 bp arms

B1: S1S4 sticky-end Holliday junction (structured_DNA)
DNA 1: GATTCCTTCCGGGCGAATTTACCCCAGTGAACGCTGGTCCCCGCGGTCATGCTGAAGGCGATAGTA
DNA 2: GCGGGGACCAGCGTTCACTGGGTTATTGGGTATGACGAGCTTAGATTTGGTATATGGTCTCGACTA
DNA 3: TAGTCGAGACCATATACCAAATCTAAGCTCGTCATACCCAATAAGATGTACGTTGGCGGACAGTTACATATTGTGCGCTGCCGGTGGC
DNA 4: GCCACCGGCAGCGCACAATATGTAACTGTCCGCCAACGTACATCGTAAATTCGCCCGGAAGGAATCCCGTAACGAGGCCACATTTTTG
B1: binds ([1]; two 3' overhangs 22 nt (strands 1 and 4)).

B2: S5S8 sticky-end Holliday junction (structured_DNA)
DNA 1: ATGTTGATCGGGAGAGGTCGAACCCTCTTTGATATTTGTGACTTTCGGGGCAACTATTTCCTCGGCGACCACGTTCGGTGACGGACCT
DNA 2: AGGTCCGTCACCGAACGTGGTCGCCGAGGAAATAGTTGCCCCGACAGGAAGCTAACTAACATGAGACAAAAATGTGGCCTCGTTACGG
DNA 3: TCTCATGTTAGTTAGCTTCCTGACGCCTGGCCGTATCTTCGGCTTACTATCGCCTTCAGCATGACC
DNA 4: AGCCGAAGATACGGCCAGGCGTAAGTCACAAATATCAAAGAGGGTTCGACCTCTCCCGATCAACAT
B2: binds ([1]; two 3' overhangs 22 nt (strands 2 and 3)).

B3: 88mer Holliday junction (structured_DNA)
DNA 1: CAGTTCCCTAAGACATCGACGTAGGACCTTGATCAACGCAGCTATGACTTCAGAGATTCTCTTATCTGGAAGCGTCCACGAACCGGCC
DNA 2: GGCCGGTTCGTGGACGCTTCCAGATAAGAGAATCTCTGAAGTCATTTGTACACTTTTCTATTCACGAGCAAAGCCTGGTATACTAGAA
DNA 3: TTCTAGTATACCAGGCTTTGCTCGTGAATAGAAAAGTGTACAAACCCACATTGCCATCGGGCGAAATGGGGTGTGCAGCGCATGCTCG
DNA 4: CGAGCATGCGCTGCACACCCCATTTCGCCCGATGGCAATGTGGGTAGCTGCGTTGATCAAGGTCCTACGTCGATGTCTTAGGGAACTG
B3: binds [2].

B4: 44mer Holliday junction (structured_DNA)
DNA 1: CGATGCGAAATCTGTACGCGCACCACGTGAAGGTGCTAGTCCCC
DNA 2: GAATGTGTTGATGGTTAAGTTCTGCGCGTACAGATTTCGCATCG
DNA 3: GTGTCTATCATTAGCGGCTCAAGAACTTAACCATCAACACATTC
DNA 4: GGGGACTAGCACCTTCACGTGGTTGAGCCGCTAATGATAGACAC
B4: binds [3].

B5: 66mer Holliday junction (structured_DNA)
DNA 1: ATGCCGCATACAACAAGTGGGGGGATGAATAGGATGTACTGCCTTTTTTATCGACTGTCCAATATG
DNA 2: CATATTGGACAGTCGATAAAAAAGGCAGTACATACTTGGTCCACTCTGGTACAAGATGAGGTGGAT
DNA 3: ATCCACCTCATCTTGTACCAGAGTGGACCAAGTAGTGCGCGATTGACGTTCGAGGCGGACTCTCCT
DNA 4: AGGAGAGTCCGCCTCGAACGTCAATCGCGCACTCCTATTCATCCCCCCACTTGTTGTATGCGGCAT
B5: binds [4].
